The values that follow come from patent publication US20140030725.

This series concerns the target MMP-2 sensor (1A5 variant backbone with the human MMP-2 recognition site PLGMWSR, N-terminal GST tag with TEV site, C-terminal 5xHQ tag).

B1: Activated MMP-2 (Anaspec) (protein)
chain: YNFFPRKPKWDKNQITYRIIGYTPDLDPETVDDAFARAFQVWSDVTPLRFSRIHDGEADIMINFGRWEHGDGYPFDGKDGLLAHAFAPGTGVGGDSHFDDDELWTLGEGQVVRVKYGNADGEYCKFPFLFNGKEYNSCTDTGRSDGFLWCSTTYNFEKDGKYGFCPHEALFTMGGNAEGQPCKFPFRFQGTSYDSCTTEGRTDGYRWCGTTEDYDRDKKYGFCPETAMSTVGGNSEGAPCVFPFTFLGNKYESCTSAGRSDGKMWCATTANYDDDRKWGFCPDQGYSLFLVAAHEFGHAMGLEHSQDPGALMAPIYTYTKNFRLSQDDIKGIQELYGASPDIDLGTGPTPTLGPVTPEICKQDIVFDGIAQIRGEIFFFKDRFIWRTVTPRDKPMGPLLVATFWPELPEKIDAVYEAPQEEKAVFFAGNEYWIYSASTLERGYPKPLTSLGLPPDVQRVDAAFNWSKNKKTYIFAGDKFWRYNEVKKKMDPGFPKLIADAWNAIPDNLDAVVDLQGGGHSYFFKGAYYLKLENQSLKSVKFGSIKSDWLGC
For the protein B1, the “luminescence, fold increase over control (background from MMP-2 sensor); least amount of MMP-2 detected” value is listed as “can be used to detect as little as 0.75 ng protein”.
